Experimental data: US20040265295A1 (WISCONSIN ALUMNI RESEARCH FOUNDATION, published 2004)
One block for each binder: values may come before it. Ends that are not written are not given here.

What was measured:
talin [1] = biological target: T1, talin (Homo sapiens (Human), UniProt Q9Y490 1-2541); assay: co-immunoprecipitation with talin
T1 construct: Endogenous talin of HEK293T (and other) cells, detected with anti-talin antibody; also called talin (endogenous, in cell lysates)

[2] = biological target: T2, GST-talin head Lys^357->Gln mutant (human, UniProt Q9Y490 1-435); assay: GST pull-down
T2 construct: Talin head mutant in pET42; also called mutant GST-talin; not shown: GST (and further tags) of the pET42 vector
T2 sequence (Q9Y490 other isoform, or with tags, fused parts or gaps mutant): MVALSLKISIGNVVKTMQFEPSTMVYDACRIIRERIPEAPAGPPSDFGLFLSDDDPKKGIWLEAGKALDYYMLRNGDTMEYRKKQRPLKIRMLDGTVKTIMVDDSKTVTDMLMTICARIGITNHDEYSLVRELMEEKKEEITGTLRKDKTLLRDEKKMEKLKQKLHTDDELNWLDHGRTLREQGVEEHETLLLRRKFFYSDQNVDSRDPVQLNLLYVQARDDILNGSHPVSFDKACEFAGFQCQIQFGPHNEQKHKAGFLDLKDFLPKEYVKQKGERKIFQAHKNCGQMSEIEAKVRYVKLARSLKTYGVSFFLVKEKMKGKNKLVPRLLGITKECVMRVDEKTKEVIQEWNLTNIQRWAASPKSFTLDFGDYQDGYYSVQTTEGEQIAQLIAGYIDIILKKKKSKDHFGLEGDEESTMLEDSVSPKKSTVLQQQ
Method: (§1) Purified GST-talin head proteins were incubated with PIPKIγ661 tails or β1-integrin tail, together with Glutathione SEPHAROSE™ 4 Fast Flow (Amersham Biosciences, Piscataway, N.J.), in Buffer B (PBS, 0.2% NP-40, 2 mM DTT) at 4° C. for 4 hours. The beads were washed three times with Buffer B and analyzed by western blot. For competition assays, GST-talin head proteins were incubated with peptides or competing proteins for 2 hours, then the binding proteins were added and the mixtures were incubated for another 4 hours.

[3] = biological target: T3, GST-talin head Arg^358->Gln mutant (human, UniProt Q9Y490 1-435); assay: GST pull-down
T3 construct: Talin head mutant in pET42; also called mutant GST-talin; not shown: GST (and further tags) of the pET42 vector
T3 sequence (Q9Y490 other isoform, or with tags, fused parts or gaps mutant): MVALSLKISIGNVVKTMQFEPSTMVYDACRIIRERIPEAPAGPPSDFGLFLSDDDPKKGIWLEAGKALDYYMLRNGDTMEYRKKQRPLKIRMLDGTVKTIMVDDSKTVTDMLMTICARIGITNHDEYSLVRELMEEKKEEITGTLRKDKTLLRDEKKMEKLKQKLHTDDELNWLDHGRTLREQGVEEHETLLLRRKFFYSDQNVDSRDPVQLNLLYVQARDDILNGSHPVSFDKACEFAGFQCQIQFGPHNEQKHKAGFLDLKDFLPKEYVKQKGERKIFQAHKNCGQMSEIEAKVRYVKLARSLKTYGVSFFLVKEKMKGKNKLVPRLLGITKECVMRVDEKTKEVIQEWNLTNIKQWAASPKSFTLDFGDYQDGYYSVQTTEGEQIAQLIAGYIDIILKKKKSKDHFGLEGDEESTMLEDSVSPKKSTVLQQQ
Method: as §1

talin [4] = biological target: T1, talin; assay: co-immunoprecipitation of c-Myc-tagged chimeras
Excerpt: (§2) Two approaches were used to identify proteins that specifically interact with PIPKIγ661. […] As numerous focal adhesion proteins are tyrosine phosphorylated, the immunoprecipitates were immunoblotted with anti-phosphotyrosine antibodies. A tyrosine-phosphorylated protein of relative molecular mass 230,000 (Mᵣ 230K) was selectively immunoprecipitated with PIPKIγ661. This protein was identified as talin (Pasquale, et al. (1986) Proc. Natl Acad. Sci. USA 83:5507-5511; DeClue and Martin (1987) Mol. Cell Biol. 7:371-378). […] Only the PIPKIα/γ chimeras that target to focal adhesions associated with talin. To confirm the talin-PIPKIγ661 interaction, talin was immunoprecipitated from HEK293T cells overexpressing PIPKIγ661 or PIPKIγ635. Talin co-precipitated with PIPKIγ661, but not PIPKIγ635. It is known that endogenous PIPKIγ splice isoforms are widely expressed in various cell lines. When endogenous PIPKIγ was immunoprecipitated from a variety of cells types, talin association was consistently observed.
(§3) Immunoprecipitation was performed using standard methods (Zhang, et al. (1997) J. Biol. Chem. 272:17756-17761). […] The immunocomplexes were washed with Buffer A, separated by SDS-polyacrylamide gel electrophoresis (SDS-PAGE), and analyzed as indicated. […]

vinculin = biological target: T4, vinculin (UniProt P18206-2 1-1066, limits assumed); assay: co-immunoprecipitation with HA-tagged PIPKIγ661 from HEK 293T cells
T4 sequence (looked up): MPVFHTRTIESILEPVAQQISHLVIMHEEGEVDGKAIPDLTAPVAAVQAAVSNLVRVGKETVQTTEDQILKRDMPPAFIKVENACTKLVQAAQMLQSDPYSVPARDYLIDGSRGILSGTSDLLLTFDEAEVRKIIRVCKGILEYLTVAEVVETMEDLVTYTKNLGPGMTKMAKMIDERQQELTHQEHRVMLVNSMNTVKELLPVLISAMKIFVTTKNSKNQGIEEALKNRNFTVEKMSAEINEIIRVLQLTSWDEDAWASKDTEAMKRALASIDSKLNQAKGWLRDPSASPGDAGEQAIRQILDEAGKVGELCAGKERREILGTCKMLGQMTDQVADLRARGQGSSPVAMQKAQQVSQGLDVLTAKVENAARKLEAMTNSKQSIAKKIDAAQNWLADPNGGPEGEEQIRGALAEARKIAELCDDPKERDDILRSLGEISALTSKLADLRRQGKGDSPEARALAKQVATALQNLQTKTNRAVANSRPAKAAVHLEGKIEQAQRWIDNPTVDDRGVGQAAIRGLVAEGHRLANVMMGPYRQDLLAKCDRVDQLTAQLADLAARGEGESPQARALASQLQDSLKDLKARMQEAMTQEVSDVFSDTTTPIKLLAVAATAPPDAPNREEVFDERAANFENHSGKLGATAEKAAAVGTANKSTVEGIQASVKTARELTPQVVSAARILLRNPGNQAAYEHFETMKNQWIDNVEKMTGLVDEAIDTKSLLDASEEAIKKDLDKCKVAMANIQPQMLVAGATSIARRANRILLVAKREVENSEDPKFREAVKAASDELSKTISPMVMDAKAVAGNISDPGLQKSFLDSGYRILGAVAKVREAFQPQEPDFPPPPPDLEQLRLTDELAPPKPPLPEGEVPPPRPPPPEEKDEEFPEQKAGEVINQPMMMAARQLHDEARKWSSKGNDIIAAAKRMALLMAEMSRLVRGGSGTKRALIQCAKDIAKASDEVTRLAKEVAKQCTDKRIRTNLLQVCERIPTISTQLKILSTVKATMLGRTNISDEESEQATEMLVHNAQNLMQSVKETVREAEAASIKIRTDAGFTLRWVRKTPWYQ
Excerpt: as §2, §3

tensin = tensin (UniProt Q9HBL0 1-1839, limits assumed); assay: as above
Chain of tensin (Q9HBL0 whole entry): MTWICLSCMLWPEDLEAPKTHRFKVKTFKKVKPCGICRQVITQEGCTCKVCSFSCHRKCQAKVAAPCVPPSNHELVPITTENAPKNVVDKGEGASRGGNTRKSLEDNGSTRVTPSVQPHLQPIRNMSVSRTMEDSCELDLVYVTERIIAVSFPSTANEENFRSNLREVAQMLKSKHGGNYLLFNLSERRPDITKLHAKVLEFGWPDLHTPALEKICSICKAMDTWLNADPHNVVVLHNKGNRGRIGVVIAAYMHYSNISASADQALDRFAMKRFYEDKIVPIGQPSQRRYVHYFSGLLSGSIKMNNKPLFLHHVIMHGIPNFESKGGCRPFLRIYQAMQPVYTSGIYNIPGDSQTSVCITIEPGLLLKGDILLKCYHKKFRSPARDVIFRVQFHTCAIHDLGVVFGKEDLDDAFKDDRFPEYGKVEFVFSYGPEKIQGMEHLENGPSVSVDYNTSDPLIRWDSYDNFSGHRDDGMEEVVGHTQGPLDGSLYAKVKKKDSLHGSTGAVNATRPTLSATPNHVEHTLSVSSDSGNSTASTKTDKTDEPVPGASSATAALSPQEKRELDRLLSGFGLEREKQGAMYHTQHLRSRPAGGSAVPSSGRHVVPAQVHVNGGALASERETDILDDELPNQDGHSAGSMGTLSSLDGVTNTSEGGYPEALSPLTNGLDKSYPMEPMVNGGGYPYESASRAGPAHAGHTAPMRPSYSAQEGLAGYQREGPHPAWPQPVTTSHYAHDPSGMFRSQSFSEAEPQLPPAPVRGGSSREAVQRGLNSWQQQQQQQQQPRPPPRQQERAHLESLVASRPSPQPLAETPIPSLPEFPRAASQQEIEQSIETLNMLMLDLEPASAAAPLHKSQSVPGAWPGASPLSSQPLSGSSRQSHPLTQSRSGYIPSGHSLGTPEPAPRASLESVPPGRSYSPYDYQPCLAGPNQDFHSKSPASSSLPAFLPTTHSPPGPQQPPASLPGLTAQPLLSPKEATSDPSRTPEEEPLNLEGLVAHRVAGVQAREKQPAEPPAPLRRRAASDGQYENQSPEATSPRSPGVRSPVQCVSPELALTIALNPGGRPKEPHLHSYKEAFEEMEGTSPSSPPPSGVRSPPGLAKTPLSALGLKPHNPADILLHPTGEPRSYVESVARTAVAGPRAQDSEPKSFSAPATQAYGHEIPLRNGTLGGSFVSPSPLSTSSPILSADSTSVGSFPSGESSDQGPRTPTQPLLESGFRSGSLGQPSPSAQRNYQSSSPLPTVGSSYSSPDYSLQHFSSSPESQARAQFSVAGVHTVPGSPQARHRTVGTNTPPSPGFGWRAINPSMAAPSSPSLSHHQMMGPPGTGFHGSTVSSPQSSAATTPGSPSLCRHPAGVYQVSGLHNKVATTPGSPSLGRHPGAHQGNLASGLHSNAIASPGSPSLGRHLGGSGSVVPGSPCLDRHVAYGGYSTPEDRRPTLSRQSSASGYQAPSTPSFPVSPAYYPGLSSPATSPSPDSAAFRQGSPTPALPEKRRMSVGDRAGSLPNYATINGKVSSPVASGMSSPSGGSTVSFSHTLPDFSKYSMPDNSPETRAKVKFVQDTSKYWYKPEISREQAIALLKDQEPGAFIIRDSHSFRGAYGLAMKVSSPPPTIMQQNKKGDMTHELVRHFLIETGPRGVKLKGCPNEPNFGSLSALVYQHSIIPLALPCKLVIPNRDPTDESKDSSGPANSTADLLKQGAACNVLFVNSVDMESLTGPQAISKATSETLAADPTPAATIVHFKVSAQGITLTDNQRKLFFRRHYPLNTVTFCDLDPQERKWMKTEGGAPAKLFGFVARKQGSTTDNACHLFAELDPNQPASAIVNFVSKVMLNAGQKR
Excerpt: as §2, §3

talin [5] = biological target: T1, talin; assay: co-immunoprecipitation from HEK293T cells in suspension versus adherent to type I collagen
Method: The association between PIPKIγ661 and talin was also regulated by adhesion to type I collagen. […] However, in suspended cells, the PIPKIγ661 association with talin was restored when cells were stimulated with lysophosphatidic acid (LPA) or platelet-derived growth factor (PDGF).
Immunoprecipitation was performed using standard methods (Zhang, et al. (1997) J. Biol. Chem. 272:17756-17761). Briefly, transfected HEK293T cells were harvested and lysed in Buffer A (50 mM Tris-HCl, pH 7.5, 150 mM NaCl, 0.1-1.0% NP-40, 5.0 mM NaF, 2 mM Na₃VO₄, 4 mM Na₂P₂O₇, 1 mM EDTA, 0.1 mM EGTA, 1 mM phenylmethyl sulphonyl fluoride (PMSF), 10% glycerol), centrifuged and incubated with protein A-Sepharose and 5 μg anti-HA, anti-c-Myc, anti-Flag, anti-PIPKIγ or anti-talin antibody as indicated at 4° C. for 4 hours to overnight. The immunocomplexes were washed with Buffer A, separated by SDS-polyacrylamide gel electrophoresis (SDS-PAGE), and analyzed as indicated. For the kinase assay, the immunocomplexes were washed and stored in kinase buffer.
The cells were harvested and washed with PBS, and suspended in serum-free DMEM at 37° C. for 1 hour. After stimulation with 10 ng/ml platelet-derived growth factor (PDGF) (R&D Systems Inc., Minneapolis, Minn.), 1 μuM LPA (Sigma, St. Louis) or serum at 37° C. for 15 minutes, cells were lysed as for immunoprecipitation. […]

T1 sequence (Q9Y490 other isoform, or with tags, fused parts or gaps limits assumed): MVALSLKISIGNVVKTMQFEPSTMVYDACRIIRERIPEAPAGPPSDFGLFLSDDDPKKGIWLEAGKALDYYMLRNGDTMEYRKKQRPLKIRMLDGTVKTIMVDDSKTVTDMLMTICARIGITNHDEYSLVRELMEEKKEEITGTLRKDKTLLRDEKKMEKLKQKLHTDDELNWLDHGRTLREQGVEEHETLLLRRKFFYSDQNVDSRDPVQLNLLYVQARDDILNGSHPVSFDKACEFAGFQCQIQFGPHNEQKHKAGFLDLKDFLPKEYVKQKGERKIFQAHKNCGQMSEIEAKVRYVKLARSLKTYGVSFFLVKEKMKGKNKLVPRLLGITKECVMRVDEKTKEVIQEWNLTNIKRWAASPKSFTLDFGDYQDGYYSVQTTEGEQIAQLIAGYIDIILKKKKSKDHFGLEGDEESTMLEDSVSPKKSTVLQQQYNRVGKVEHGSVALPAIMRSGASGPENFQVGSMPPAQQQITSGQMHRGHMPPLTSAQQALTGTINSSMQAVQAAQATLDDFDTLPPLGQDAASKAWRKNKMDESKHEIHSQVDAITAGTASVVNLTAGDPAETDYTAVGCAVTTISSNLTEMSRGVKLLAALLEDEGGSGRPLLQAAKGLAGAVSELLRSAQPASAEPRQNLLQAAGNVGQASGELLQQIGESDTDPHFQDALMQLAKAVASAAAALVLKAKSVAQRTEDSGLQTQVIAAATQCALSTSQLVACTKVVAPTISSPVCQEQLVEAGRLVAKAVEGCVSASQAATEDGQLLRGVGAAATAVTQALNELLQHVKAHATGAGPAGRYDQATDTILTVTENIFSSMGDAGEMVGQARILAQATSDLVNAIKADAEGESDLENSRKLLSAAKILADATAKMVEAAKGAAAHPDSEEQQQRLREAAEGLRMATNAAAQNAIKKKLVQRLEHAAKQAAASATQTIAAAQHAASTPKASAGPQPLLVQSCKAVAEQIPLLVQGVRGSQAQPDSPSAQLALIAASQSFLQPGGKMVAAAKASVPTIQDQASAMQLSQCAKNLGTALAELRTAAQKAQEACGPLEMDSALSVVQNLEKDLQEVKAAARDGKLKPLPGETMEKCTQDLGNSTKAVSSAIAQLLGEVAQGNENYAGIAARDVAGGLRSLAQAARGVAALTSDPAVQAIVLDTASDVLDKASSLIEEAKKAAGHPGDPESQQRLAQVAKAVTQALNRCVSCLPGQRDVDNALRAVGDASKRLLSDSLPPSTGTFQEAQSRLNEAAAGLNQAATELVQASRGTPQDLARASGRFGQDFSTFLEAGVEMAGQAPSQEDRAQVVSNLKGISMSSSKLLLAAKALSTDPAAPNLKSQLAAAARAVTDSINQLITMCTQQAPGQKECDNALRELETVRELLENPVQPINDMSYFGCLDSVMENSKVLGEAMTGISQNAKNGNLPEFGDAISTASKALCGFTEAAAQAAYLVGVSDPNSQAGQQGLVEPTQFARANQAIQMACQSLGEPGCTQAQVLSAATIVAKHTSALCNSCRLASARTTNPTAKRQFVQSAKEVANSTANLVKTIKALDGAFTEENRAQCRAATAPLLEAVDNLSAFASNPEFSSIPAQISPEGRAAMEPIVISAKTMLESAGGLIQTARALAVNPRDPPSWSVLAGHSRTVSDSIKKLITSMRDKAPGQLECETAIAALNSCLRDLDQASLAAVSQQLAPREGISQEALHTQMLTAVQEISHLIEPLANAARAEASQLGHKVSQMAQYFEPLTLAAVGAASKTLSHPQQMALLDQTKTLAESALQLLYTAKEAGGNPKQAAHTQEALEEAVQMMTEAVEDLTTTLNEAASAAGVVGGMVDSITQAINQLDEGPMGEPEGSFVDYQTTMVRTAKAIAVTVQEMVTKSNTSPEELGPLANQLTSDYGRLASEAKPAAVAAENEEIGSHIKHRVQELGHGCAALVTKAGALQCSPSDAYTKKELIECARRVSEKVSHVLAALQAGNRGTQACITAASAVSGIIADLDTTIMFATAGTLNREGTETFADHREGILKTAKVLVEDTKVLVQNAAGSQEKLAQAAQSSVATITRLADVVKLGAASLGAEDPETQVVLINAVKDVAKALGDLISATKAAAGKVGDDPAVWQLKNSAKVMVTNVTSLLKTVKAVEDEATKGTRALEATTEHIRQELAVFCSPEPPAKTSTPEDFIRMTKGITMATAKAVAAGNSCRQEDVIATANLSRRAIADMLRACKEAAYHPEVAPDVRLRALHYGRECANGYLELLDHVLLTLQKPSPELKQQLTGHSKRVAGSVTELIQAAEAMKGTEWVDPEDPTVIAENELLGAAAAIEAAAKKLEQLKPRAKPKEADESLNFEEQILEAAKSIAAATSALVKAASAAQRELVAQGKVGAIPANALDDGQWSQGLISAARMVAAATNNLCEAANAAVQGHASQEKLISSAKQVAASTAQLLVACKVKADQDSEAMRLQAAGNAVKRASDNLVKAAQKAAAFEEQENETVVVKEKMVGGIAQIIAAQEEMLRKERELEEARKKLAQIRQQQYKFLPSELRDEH

- binding result (talin [1]): no binding
B1: PIPKIγ-W (enzyme)
chain: MELEVPDEAESAEAGAVTAEAAWSAESGAAAGMTQKKAGLAEAPLVTGQPGPGHGKKLGHRGVDASGETTYKKTTSSTLKGAIQLGIGYTVGNLSSKPERDVLMQDFYVMESIFFPSEGSNFTPAHHFQDFRFKTYAPVAFRYFRELFGIRPDDYLYSLCNEPLIELSNPGASGSVFYVTSDDEFIIKTVMHKEAEFLQKLLPGYYMNLNQNPRTLLPKFYGLYCVQSGGKNIRVVVMNNVLPRVVKMHLKFDLKGSTYKRRASKKEKEKSLPTYKDLDFMQDMPEGLLLDSDTFGALVKTLQRDCLVLESFKIMDYSLLLGVHNIDQQERERQAEGAQSKADEKRPVAQKALYSTAMESIQGGAARGEAIETDDTMGGIPAVNGRGERLLLHIGIIDILQSYRFIKKLEHTWKALVHDGDTVSVHRPSFYAERFFKFMSSTVFRKSSSLKSSPSKKGRGALLAVKPLGPTAAFSASQIPSEREDVQYDLRGARSYPTLEDEGRPDLLPCTPPSFEEATTASIATTLSSTSLSIPERSPSDTSEQPRYRRRTQSSGQDGRPQEEPHAEDLQKITVQVEPVCGVGVVPKEEGAGVEVPPCGASAAASVEIDAASQASEPASQASDEEDAPSTDIYFPTDERS
notes: The text says only that it lacks both Tyr644 and Tyr649; The end at Trp642 is inferred from the name; also called tail-truncation mutant of PIPKIγ661 lacking Tyr644 and Tyr649

- binding result [2]: no binding
- binding result [3]: no binding
B2: His-tagged mouse β1-integrin tail (receptor, UniProt P09055 752-798, looked up)
chain: KLLMIIHDRREFAKFEKEKMNAKWDTGENPIYKSAVTTVVNPKYEGK
modifications: not fully specified (N-terminus); also: N-terminal His tag of pET28 vector, sequence not given here
notes: domain: tail; also called His-β1-integrin tail; His-β-integrin; not shown: His tag of the pET28 vector

- binding result (talin [4]): no binding
B3: PIPKIα/γ635 chimera (c-Myc-tagged) (enzyme, not shown: small tags and cut ends)
chain: MASASSGPSSSVGFSSFDPAVPSCTLSSAASGIKRPMASEVLEARQDSYISLVPYASGMPIKKIGHRSVDSSGETTYKKTTSSALKGAIQLGITHTVGSLSTKPERDVLMQDFYVVESIFFPSEGSNLTPAHHYNDFRFKTYAPVAFRYFRELFGIRPDDYLYSLCSEPLIELCSSGASGSLFYVSSDDEFIIKTVQHKEAEFLQKLLPGYYMNLNQNPRTLLPKFYGLYCVQAGGKNIRIVVMNNLLPRSVKMHIKYDLKGSTYKRRASQKEREKPLPTFKDLDFLQDIPDGLFLDADMYNALCKTLQRDCLVLQSFKIMDYSLLMSIHNIDHAQREPLSSETQYSVDTRRPAPQKALYSTAMESIQGEARRGGTMETDDHMGGIPARNSKGERLLLYIGIIDILQSYRFVKKLEHSWKALVHDGDTVSVHRPGFYAERFQRFEDVQYDLRGARSYPTLEDEGRPDLLPCTPPSFEEATTASIATTLSSTSLSIPERSPSDTSEQPRYRRRTQSSGQDGRPQEEPHAEDLQKITVQVEPVCGVGVVPKEEGAGVEVPPCGASAAASVEIDAASQASEPASQASDEEDAPSTDIYF
notes: range 1-444

- binding result (vinculin): no binding
- binding result (tensin): no binding
- binding result (talin [5]): binds
B4: Haemagglutinin (HA)-tagged PIPKIγ661 (enzyme, not shown: small tags and cut ends)
chain: MELEVPDEAESAEAGAVTAEAAWSAESGAAAGMTQKKAGLAEAPLVTGQPGPGHGKKLGHRGVDASGETTYKKTTSSTLKGAIQLGIGYTVGNLSSKPERDVLMQDFYVMESIFFPSEGSNFTPAHHFQDFRFKTYAPVAFRYFRELFGIRPDDYLYSLCNEPLIELSNPGASGSVFYVTSDDEFIIKTVMHKEAEFLQKLLPGYYMNLNQNPRTLLPKFYGLYCVQSGGKNIRVVVMNNVLPRVVKMHLKFDLKGSTYKRRASKKEKEKSLPTYKDLDFMQDMPEGLLLDSDTFGALVKTLQRDCLVLESFKIMDYSLLLGVHNIDQQERERQAEGAQSKADEKRPVAQKALYSTAMESIQGGAARGEAIETDDTMGGIPAVNGRGERLLLHIGIIDILQSYRFIKKLEHTWKALVHDGDTVSVHRPSFYAERFFKFMSSTVFRKSSSLKSSPSKKGRGALLAVKPLGPTAAFSASQIPSEREDVQYDLRGARSYPTLEDEGRPDLLPCTPPSFEEATTASIATTLSSTSLSIPERSPSDTSEQPRYRRRTQSSGQDGRPQEEPHAEDLQKITVQVEPVCGVGVVPKEEGAGVEVPPCGASAAASVEIDAASQASEPASQASDEEDAPSTDIYFPTDERSWVYSPLHYSARPASDGESDT
notes: tyrosine phosphorylated in cells to an extent that depends on the conditions; also called Type I phosphatidylinositol phosphate kinase isoform γ661; HA-PIPKIγ661
